Data taken from the RNAGym collection of RNA variant scans (doi:10.1073/pnas.2313332121).

B1: TPR t1 (parent)
chain: GACCAAUCUGCCCUCAGAGCUCGAGAACAUCUUCGGAUGCAGAGGAGGCAGGCUUCGGUGGCGCGAUAGCGCCAACGUCCUCAACCUCCAAUGCAUCCCACCACAUGAUGAUGCCUGAAGAGCCUUGGUUUUUUG

Variants of: B1
Assay: polymerase ribozyme fitness, log enrichment relative to wild type (log ratio); higher = more active; in vitro selection for triplet polymerase activity
How it was run: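 PCR was used to build mutant libraries for each subunit of a heterodimeric triplet polymerase ribozyme, which were then transcribed. A single in vitro selection round, in triplicate, used a frozen incubation at −7 °C and recovered extended constructs by gel excision, streptavidin beads and RT-PCR. Fitness is the logarithm of genotype enrichment relative to wild-type enrichment, averaged over replicates with inverse-variance weights. The logarithm is base 2, and after Illumina sequencing only genotypes with ≥10 input reads and ≥1 read per output were kept.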

Point of comparison: C56U U59G A74G C102A G127U, “polymerase ribozyme fitness (log ratio)” value -3.57. Against it:
- C56G A74U C86A — higher, -2.4
- U54A U92G — higher, -2.06
- C53U C89A C115U A119G — higher, 0.658
- C53U U59C — higher, -0.508
- C56U C64U — higher, -1.54
- U55A C64A C115G G128A — lower, -6.49
- U54A G57U U78A A95U G120U — higher, -0.728
- C53U G61A C82A C86G U133A — higher, -1.32
- U55C U106G — higher, -1.88
- U54G C56U — lower, -4.05
- C56U C82U C86A U112G U129C — higher, -1.4
- U54G G71A G120C — lower, -6.71
- U55C C56U G69C C85U — lower, -4.97
- C56G C89G A90C — higher, -3.29
- U54C G69U G127C — higher, -0.892
- U54A A119G G135U — higher, 0.414
- C53U G60C G120A — higher, 0.0788
- U55G C73G C123U — higher, 0.666
- C56U U96A U106A — higher, -0.662
- C56U G77A C94U C102A — higher, -2.87
- U54C C56A C85G G117A — lower, -4.42
- C56G C82G C115G A121U — higher, -0.801
- U54C C82U U106A U109A G135U — lower, -4.59
- C53U G58U — higher, -0.0375
- U54C A103G — lower, -4.75
- C56A U78C C98A G122A C123U U132A — lower, -5.25
- C56U U67G G71A C80U G120C — lower, -6.12
- U54A C64U C72U C86A — higher, -0.948
- C56G G58C — higher, 0.394
- C56A C80A — higher, -2.22
- U55G G69C A119U G127C — higher, -1.89
- U54A G60C — higher, -0.566
- C56G A83C C101A C124G — higher, 0.428
- C56G A74U — higher, -0.327
- C56G A66G C94A — higher, -2.49
- U55A G61U — higher, -0.0687
- C56A C73U C97U A103U G120C — lower, -7.26
- C56A U92A — within 0.2 log units, -3.75
- C56A U92G — higher, -2.6
- C53U C82A A121C — higher, 1.33
- C56U A90G U132A — higher, 0.308
- C56A G63U G77C C115G — lower, -4.37
- C53U U92G — higher, -2.82
- C56U A111U — higher, -1.9
- U55C G61U A90G U112C A119U — higher, 0.196
- U54A G113A C123U — higher, -2.23
- C53U G113C — higher, -1.77
- U55G A74U U81A C85G G122A — lower, -4.4
- U54A G61U C62U U96G — lower, -6.42
- C53U C89U — higher, -0.632
- C56U U92C — higher, -0.619
- C56U C88U — higher, -0.153
- C56U A103U — lower, -4.81
- C53U G93A A105C G117U — lower, -6.56
- C53U G69A A91U G110A G113U G128U — lower, -5.88
- C56U C86U C124U U131A — higher, 1.32
- U54G C62A U78C C123U U126A — lower, -6.39
- U54G C56U A121G C124A — lower, -4.56
- C56G G77C U130G — higher, -0.115
- C53U G71C — higher, -0.133
- C53U G71U — higher, -0.192
- U54C G122A G128U — higher, -3.12
- U54A U96C — higher, 0.104
- C56G C62U C64U C82A C89U C123A — within 0.2 log units, -3.52
- U54G G60C U112A G117C — lower, -5
- U54G A75U C89U — higher, -0.98
- U54A C64U A95C — higher, -0.888
- C56A C88G A118U — higher, -1.12
- C53U G57C U78C C114A C123U — within 0.2 log units, -3.58
- C56U G128A — higher, -1.64
- C56G C70A A118U — higher, -2.37
- U54G C62G U81A C98U — lower, -4.8
- U54C G71C A91U U116C — lower, -5.63
- C56A G57C — higher, 0.379
- U55G G117U — higher, -2.73
- C56A G71A A100U — lower, -5.55
- C56A C86U — higher, -0.995
- U55C C123A — higher, -0.354
- U55A C101G — higher, -1.85
- C53U G63A C80A A105C G113U — lower, -6.53
- C56A G63A A91C — lower, -5.68
- C53U C123U — higher, 1.1
- U54C G57C U112C — higher, 1.77
- C56U U112C G117C G120U G127C U132A — lower, -4.94
- U55C C62U C89A U109A — lower, -6.44
- C53U C72G G113C U129A — lower, -4.76
- C53U U59A C89A U130G — within 0.2 log units, -3.42
- U55C C62G G128U — lower, -4.02
- C56U C82G U130C — higher, -0.672
- U55A C114U — higher, -2.35
- C56G C82U A91C U116C — higher, -2.61
- U55A C85A U112G — higher, -2.37
- C53U C79G U81C — higher, -1.9
- C56A A100C — higher, -1.19
- C56G U59G C97A — lower, -5.51
- C56A U67A — lower, -6.26
- C56U G61C G117C — lower, -4.62
- C56G G69U U81A C88A A100U — higher, -2.69
- C56U C86U G117A — higher, -1.37
- C56U C80U C101U A121C — higher, 0.686
- U54G C80G C123U — lower, -4.41
- C56A G58C — higher, -0.496
- U54A G113A — higher, -1.58
- U55A C56A — higher, -0.0197
- C56A C79G C123G U133A — higher, 1.29
- C56A C72G A90G — higher, -1.05
- U54A G127C — higher, -0.488
- C53U C101G — higher, -1.42
- C56G A111C A119U — higher, -1.72
- C56U C73G U96A U106A — within 0.2 log units, -3.7
- C56A U87G A108G G113C — within 0.2 log units, -3.65
- C56U C115A U133C — higher, 1.27
- U55C G71C C104U — higher, -0.984
- C56G A68G C73A A111G G135U — lower, -6.08
- C56U C72U — higher, -0.11
- C56U C72A — higher, -0.0735
- C56A C115A — higher, -0.059
- U55G G61A C73U U81A C114A A119U — within 0.2 log units, -3.58
- C56A C64U — higher, -0.751
- C56G C79U — higher, -0.342
- U54A C124A G128U — higher, -0.136
- C56U C70A C115A G122A — higher, -3.13
- U55C U59G C114U — higher, -1.28
- U54A C56U — higher, -0.589
- C56G G58U U59C — higher, 1.36
- C53U G60U C80U G93C C97U C101U U133A — within 0.2 log units, -3.62
- C56G C73G — higher, -2.66
- U54A U81A — higher, -0.628
- C56A G71A C86A C104A — lower, -6.75
- C56G C102A — higher, -1.59
- C56U C62U C101G U133A — higher, -3.24
- U54A C88G — higher, -1.9
- C56A G128C — higher, -2.8
- C56A G107A A121C — lower, -4.32
- U54A A95U — higher, -0.632
- U55A C88U — higher, 0.678
- U54C C98U A121U — higher, 1.37
- U54G C102U — higher, -1.84
- U54C C72U — higher, -0.0207
- C56G C89G U96A — higher, -2.31
- U55A U59C U78G C82A G110A — higher, -2.6
- C53U C80A U131A — lower, -5.6
- U54C C94G C99U — lower, -4.42
- C56A G61C — lower, -5.03
- U55C A91U C94A — higher, -2.3
- C56A C99A — lower, -6.08
- C53U C124G — higher, 1.61
- C53U C124U — higher, 1.92
- U54A G69U — higher, -0.707
- U54A G69C — higher, -1.12
- C56G C80A — higher, -1.38
- C56U U106A — higher, 0.0907
- C56A G113C — higher, -1.7
- U55C C73A C76G A121U — higher, 0.355
- C56A U59G A83G — higher, -1.48
- U55C G57U A66C — higher, 0.353
- U54A A66G C70G C124U U129G — lower, -6.53
- C53U C86G C89G C97U C124U — higher, -1.92
- U55C C85A G113C — within 0.2 log units, -3.66
- C56U A90G G93C — higher, -1.38
- U55A G77A A111U C114U — lower, -5.73
- C56G C64U C123U — higher, 0.0926
- U55C G58A G60U U78A G110A — higher, -1.19
- C56G C94G U112A — higher, -0.000426
- C56U G57A C79G — higher, -1.48
- C56U C70U U96A — higher, -2.06
